Experimental data from US20150307625A1 (Bayer, published 2015).
Blank lines part the entries; values can stand above or below the molecule they belong to.

How the values were obtained:
[1] = molecular target: activated Factor X; assay: direct ELISA, FXa coated at 10 ug/ml, positive control antibody specific for the antigen, concentration not given
[2] = molecular target: activated Factor VII; assay: direct ELISA, FVIIa coated at 10 ug/ml, positive control antibody specific for the antigen, concentration not given
Sequence of activated Factor VII (P08709 61-212, chain 1 of 2): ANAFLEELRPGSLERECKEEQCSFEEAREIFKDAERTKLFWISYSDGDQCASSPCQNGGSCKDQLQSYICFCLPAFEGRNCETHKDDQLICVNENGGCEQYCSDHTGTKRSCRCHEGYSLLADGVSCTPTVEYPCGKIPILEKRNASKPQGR
Sequence of activated Factor VII (P08709 213-466, chain 2 of 2): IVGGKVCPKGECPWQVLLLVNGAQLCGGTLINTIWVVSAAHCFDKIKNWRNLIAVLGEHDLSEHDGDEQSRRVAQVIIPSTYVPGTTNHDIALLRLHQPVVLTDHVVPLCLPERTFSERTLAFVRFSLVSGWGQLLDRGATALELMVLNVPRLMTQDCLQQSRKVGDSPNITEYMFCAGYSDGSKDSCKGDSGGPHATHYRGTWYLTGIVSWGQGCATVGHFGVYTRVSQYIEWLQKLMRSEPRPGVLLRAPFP

[3] = molecular target: activated Factor IX; assay: direct ELISA, FIXa coated at 5 ug/ml, positive control antibody specific for the antigen, concentration not given
[4] = molecular target: T1, human activated Protein C (human, UniProt P04070 43-461); assay: direct ELISA, hAPC coated at 1 ug/ml, positive control antibody specific for the antigen, concentration not given
[5] = molecular target: T2, mouse Protein C (zymogen) (mouse, UniProt P33587 42-460); assay: direct ELISA, mPC coated at 10 ug/ml, positive control antibody specific for the antigen, concentration not given
T2 construct: mature; also called mouse PC
T2 sequence (looked up): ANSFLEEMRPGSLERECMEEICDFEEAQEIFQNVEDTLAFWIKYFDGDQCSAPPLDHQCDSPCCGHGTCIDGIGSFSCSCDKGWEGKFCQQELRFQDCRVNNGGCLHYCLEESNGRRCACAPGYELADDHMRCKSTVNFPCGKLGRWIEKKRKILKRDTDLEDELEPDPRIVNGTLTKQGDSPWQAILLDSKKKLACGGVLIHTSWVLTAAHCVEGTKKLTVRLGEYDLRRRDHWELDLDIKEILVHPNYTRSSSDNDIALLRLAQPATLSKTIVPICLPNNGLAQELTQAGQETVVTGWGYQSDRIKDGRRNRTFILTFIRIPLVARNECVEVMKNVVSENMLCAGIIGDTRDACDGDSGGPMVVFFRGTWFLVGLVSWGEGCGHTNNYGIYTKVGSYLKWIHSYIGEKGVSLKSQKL

[6] = molecular target: T3, dog Protein C (zymogen) (dog, UniProt Q28278 43-456); assay: direct ELISA, dPC coated at 10 ug/ml, positive control antibody specific for the antigen, concentration not given
T3 construct: mature; also called dog PC
T3 sequence (looked up): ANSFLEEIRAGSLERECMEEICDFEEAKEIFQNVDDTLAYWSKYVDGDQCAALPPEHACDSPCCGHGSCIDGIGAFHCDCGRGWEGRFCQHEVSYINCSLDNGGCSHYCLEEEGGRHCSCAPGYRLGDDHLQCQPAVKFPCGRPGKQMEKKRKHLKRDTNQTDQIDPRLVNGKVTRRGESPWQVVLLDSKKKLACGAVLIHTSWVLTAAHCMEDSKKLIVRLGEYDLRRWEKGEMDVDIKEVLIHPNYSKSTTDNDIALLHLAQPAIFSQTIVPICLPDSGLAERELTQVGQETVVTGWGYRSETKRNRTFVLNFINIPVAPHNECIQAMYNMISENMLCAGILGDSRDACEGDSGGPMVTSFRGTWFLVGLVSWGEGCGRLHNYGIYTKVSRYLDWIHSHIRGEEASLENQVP

[7] = molecular target: activated Factor II (thrombin) (Homo sapiens (Human)) (UniProt P00734); assay: direct ELISA, FIIa coated at 10 ug/ml, positive control antibody specific for the antigen, concentration not given
[8] = molecular target: T4, dog activated Protein C (dog, UniProt Q28278 43-456); assay: direct ELISA, antigen coated at 1 ug/ml, IgG at 20 nM, anti-human IgG-HRP, AmplexRed (RFU)
T4 construct: mature; also called dog aPC; dAPC
T4 sequence (looked up): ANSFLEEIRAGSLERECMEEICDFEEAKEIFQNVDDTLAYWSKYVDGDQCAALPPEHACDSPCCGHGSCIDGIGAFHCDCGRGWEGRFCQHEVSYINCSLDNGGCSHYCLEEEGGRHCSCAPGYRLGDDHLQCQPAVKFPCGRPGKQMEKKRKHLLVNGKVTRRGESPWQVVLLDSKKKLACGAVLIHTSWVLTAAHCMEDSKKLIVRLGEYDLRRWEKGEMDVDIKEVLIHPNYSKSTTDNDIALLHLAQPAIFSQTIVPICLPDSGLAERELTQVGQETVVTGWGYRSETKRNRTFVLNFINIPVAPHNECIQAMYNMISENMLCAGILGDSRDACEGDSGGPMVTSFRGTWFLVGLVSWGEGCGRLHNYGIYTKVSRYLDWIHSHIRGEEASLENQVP

[9] = molecular target: T1, human activated Protein C; assay: direct ELISA, aPC coated, hIgG1
[10] = molecular target: T1, human activated Protein C; assay: ELISA titration, IgG against Fab
[11] = molecular target: T1, human activated Protein C; assay: cell-based or functional assay
[12] = molecular target: T4, dog activated Protein C; assay: direct ELISA, antigen coated at 100 ng/well, Fab at 20 nM (1 ug/ml), anti-human Fab-HRP, AmplexRed (RFU)
Procedure: (§1) FIG. 3 depicts a graph characterizing anti-APC Fabs by direct ELISA. An ELISA plate was coated with human PC (hPC), human aPC (hAPC), dog aPC (dAPC), mouse aPC (mAPC) at 100 ng per well. Purified Fabs designate on the X-axis were added to the plate at 20 nM (1 ug/ml). Bound Fab was detected by the secondary antibody (anti-human Fab-HRP) followed by HRP substrate AmplexRed. The purified Fabs preferentially bind to human aPC and, with the exception of Fab R41C17, show little to no binding to human PC.
(§2) Antigens were coated directly on ELISA plates. Coating antigens included human PC (plasma-derived), human aPC (recombinant), dog aPC (plasma-derived), and mouse aPC (recombinant) at 100 ng/well in PBS/Ca buffer. After blocking the plate with 5% milk/PBS and washing the plate with PBS-Tween20, soluble Fabs (1 ug/ml, 20 nM) were added to the plate and incubated for 1 h at RT with shaking. Fab binding was detected with anti-human Fab (lambda) antibody-HRP and Amplex red as substrate. […] In contrast, R41C17 binds to both human APC and human PC. Also shown in FIG. 3 is cross-species reactivity of Fabs by ELISA.

[13] = molecular target: T5, human Protein C (zymogen) (human, UniProt P04070 43-461); assay: as above
T5 construct: also called human PC; hPC
Procedure: as §1, §2

[14] = molecular target: T3, dog Protein C (zymogen); assay: direct ELISA, dPC coated at 10 ug/ml, Fab at 20 nM, anti-human Fab-HRP, AmplexRed (RFU)
Procedure: (§3) To determine the binding selectivity of these fabs, their binding activities to the proenzyme human PC, to thrombin (FIIa), and to the activated Factor II (FIIa, thrombin), Factor VII (FVIIa), Factor IX (FIXa), and Factor X (FXa) were also assessed by ELISA. Briefly, an ELISA plate was coated with human aPC at 1 ug/ml, mouse PC at 10 ug/ml, dog PC at 10 ug/ml, other coagulation factors (FIIa, FVIIa, FIXa, FXa) at 5-10 ug/ml. Anti-aPC Fabs were added to the wells at 20 nM (1 ug/ml). Bound Fabs were detected by the secondary antibody (anti-human Fab-HRP) followed by HRP substrate AmplexRed.

[15] = molecular target: T1, human activated Protein C; assay: direct ELISA, antigen coated, Fab
[16] = molecular target: T1, human activated Protein C; assay: ELISA titration
[17] = molecular target: T2, mouse Protein C (zymogen); assay: direct ELISA, mPC coated at 10 ug/ml, Fab at 20 nM, anti-human Fab-HRP, AmplexRed (RFU)
Procedure: as §3

[18] = molecular target: T1, human activated Protein C; assay: Biacore, Fab
[19] = molecular target: mouse activated Protein C (mouse) (UniProt P33587); assay: direct ELISA, hIgG1
[20] = molecular target: T3, dog Protein C (zymogen); assay: direct ELISA, antigen coated
[21] = molecular target: T4, dog activated Protein C; assay: direct ELISA, aPC coated, hIgG1
[22] = molecular target: T1, human activated Protein C; assay: ELISA, hIgG1
[23] = molecular target: T4, dog activated Protein C; assay: ELISA, hIgG1
[24] = molecular target: rabbit activated Protein C (rabbit) (UniProt Q28661); assay: ELISA, hIgG1
[25] = molecular target: rabbit activated Protein C (rabbit) (UniProt Q28661); assay: direct ELISA, aPC coated, hIgG1
[26] = molecular target: mouse activated Protein C (mouse) (UniProt P33587); assay: direct ELISA, aPC coated, hIgG1
[27] = molecular target: T1, human activated Protein C; assay: cell-based or functional assay; remark: listed apart in the source
[28] = molecular target: T4, dog activated Protein C; assay: cell-based or functional assay
[29] = molecular target: T1, human activated Protein C; assay: cell-based or functional assay; remark: listed apart in the source
[30] = molecular target: rabbit activated Protein C (rabbit) (UniProt Q28661); assay: cell-based or functional assay
[31] = molecular target: T4, dog activated Protein C; assay: ELISA and Biacore, as the sentence says
[32] = molecular target: T4, dog activated Protein C; assay: direct ELISA, antigen coated, Fab
[33] = molecular target: T4, dog activated Protein C; assay: Biacore, Fab

Sequence of activated Factor X (P00742 41-179, chain 1 of 2): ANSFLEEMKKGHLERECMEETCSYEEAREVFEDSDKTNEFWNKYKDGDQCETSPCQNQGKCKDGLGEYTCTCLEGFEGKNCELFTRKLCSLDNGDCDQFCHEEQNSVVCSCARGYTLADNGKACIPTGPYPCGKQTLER
Sequence of activated Factor X (P00742 235-488, chain 2 of 2): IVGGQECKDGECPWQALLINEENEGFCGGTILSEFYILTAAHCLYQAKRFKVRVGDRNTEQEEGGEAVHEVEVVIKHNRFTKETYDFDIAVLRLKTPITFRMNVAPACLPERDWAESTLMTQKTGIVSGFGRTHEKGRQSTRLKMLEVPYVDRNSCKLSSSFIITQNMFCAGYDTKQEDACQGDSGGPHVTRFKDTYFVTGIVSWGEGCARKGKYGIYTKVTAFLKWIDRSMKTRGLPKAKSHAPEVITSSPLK

- RFU [1]: 6460 RFU
- RFU [2]: 10300 RFU
- RFU [3]: 7370 RFU
- RFU [4]: 11700 RFU
- RFU [5]: 331 RFU
- RFU [6]: 476 RFU
- RFU [7]: 6050 RFU
Molecule: control Ab (specific for each antigen) (antibody)

- binding result [8]: no binding (tested: 20 nM)
- EC50 [9]: 1.76 nM
- fold increase of binding affinity against the corresponding Fab [10]: ~50 fold
- aPTT, inhibition of aPC activity at 163-fold molar excess [11]: ~80%
B1: R41E3 hIgG1 (antibody, V domains shown)
VH: EVQLLESGGGLVQPGGSLRLSCAASGFTFNNYAMTWVRQAPGKGLEWVSGVSWNGSRTHYADSVKGRFTISRDNSKNTLYLQMNSLRAEDTAVYYCARADSSSAGRWAGSLDYWGQGTLVTVTS
VL: LTQPPSASGTPGQRVTISCSGSSSNIGNNAVNWYQQLPGTAPKLLIYSNNQRPSGVPDRFSGSKSGTSASLAISGLRSEDEADYYCSSYTSSSTHVVFGGGTKLTVLG
notes: also called R41E3-IgG

- binding result [12]: no binding (tested: 20 nM)
- binding result [13]: no binding (tested: 20 nM)
- binding result [14]: no binding (tested: 20 nM)
- EC50 [15]: 10.4 nM
- EC50 [16]: 104 nM
- binding result [17]: no binding (tested: 20 nM)
- Kd [18]: 11 nM
B2: R41E3 Fab (Fab, V domains shown)
VH: B1 VH
VL: B1 VL
notes: Human Fab (lambda), expressed in E. coli

- EC50 [19]: 6 nM
- binding result [20]: no binding
- EC50 [9]: 2.18 nM
- EC50 [21]: 1.68 nM
- EC50 [22]: 2.2 nM
- EC50 [23]: 1.7 nM
- EC50 [24]: 1.7 nM
- EC50 [25]: 7 nM
- EC50 [26]: 4.6 nM
- Anti-aPC IC50 (nM), Amidolytic activity [27]: 18 nM
- Anti-aPC IC50 (nM), Amidolytic activity [28]: 625 nM
- IC50 (read off the curve), amidolytic activity of human aPC [b] [29]: ~8 nM
- aPTT, inhibition of aPC activity at 1 ug/ml IgG (1:1 molar ratio) [11]: ~50%
- Anti-aPC IC50 (nM), Amidolytic activity [30]: 17 nM
B3: T46J23-hIgG1 (antibody, V domains shown)
VH: EVQLLESGGGLVQPGGSLRLSCAASGFTFGNHWMTWVRQAPGKGLEWVSGVSWNGSRTHYADSVKGRFTISRDNSKNTLYLQMNSLRAEDTAVYYCALTGRSGWMRFPNWFDPWGQGTLVTVTS
VL: LTQPPSASGTPGQRVTISCTGTSSNIGAGYDVHWYQQLPGTAPKLLIYDNNNRPSGVPDRFSGSKSGTSASLAISGLRSEDEADYYCAAWDDSLNGVVFGGGTKLTVLG
notes: also called T46J23-IgG

- Kd [31]: 22 nM
- binding result [14]: no binding (tested: 20 nM)
- EC50 [15]: 6.7 nM
- EC50 [32]: 16.6 nM
- Kd [18]: 4.1 nM
- Kd [33]: 21 nM
B4: T46J23 Fab (Fab, V domains shown)
VH: B3 VH
VL: B3 VL
notes: as for B2
